Values of other authors in article PMC3265123.
Where two headings read alike, the source gives them in different places.

Tests used:
gC1qR (Homo sapiens) [1] = molecular target: gC1qR (Homo sapiens) (UniProt Q07021)
gC1qR (Homo sapiens) [2] = molecular target: gC1qR (Homo sapiens) (UniProt Q07021); remark: listed apart in the source

Chain of UniProt Q07021 (Q07021 74-282): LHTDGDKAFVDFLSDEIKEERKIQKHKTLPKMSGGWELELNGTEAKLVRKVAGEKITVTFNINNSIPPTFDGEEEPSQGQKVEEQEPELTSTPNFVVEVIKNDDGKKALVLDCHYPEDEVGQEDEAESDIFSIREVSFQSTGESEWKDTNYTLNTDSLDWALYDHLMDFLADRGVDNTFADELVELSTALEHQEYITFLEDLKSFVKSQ

Kd (gC1qR (Homo sapiens) [1]): 9 nM | Kd (gC1qR (Homo sapiens) [2]): 0.8 nM
Substance: high molecular weight kininogen (from UniProt P01042)
